# Experimental data from US20040076995A1, “Nurr1 transcription factor 1-box mutants having monomeric transcriptional activation activity” (priority 2001, published 2004).
# Key:
# [1] = test system: NGFI-B response element (NBRE) reporter; test: Monomeric reporter gene activation, NBRE reporter in 293 cells (full-length receptor); assay type: cell-based, human; conditions: three copies of NBRE reporter, effect of the mutation vs wild-type Nurr1
# Description: The monomeric activity was examined in 293 cells. The full-length receptor derivatives were studied using a reporter gene regulated by three copies of the NGFI-B binding site (NBRE; FIG. A).
# The ability of the mutants to activate reporter gene expression as monomers were studied in human embryonic kidney 293 cells. The cells were maintained in Dulbecco's modified Eagles medium with 10% fetal calf serum. Transfections were carried out as with JEG3 cells except that a reporter regulated by three copies of the NGFI-B (nerve growth factor inducible-B)response element (Wilson et al., 1991) (NBREs) was used. The transcriptional activities of the mutated ligand-binding domains were assessed as fusions to the Gal4 DNA-binding domain and a reporter gene with four copies of the Gal4-binding sites was used. All the transfection experiments were performed in quadruplicate dishes and each experiment has been repeated at least twice with essentially identical results. The results of a representative experiment are shown.
# [2] = test system: Nurr1-RXR heterodimer; test: Nurr1-RXR heterodimer-mediated transactivation, βRE luciferase reporter in JEG3 cells; assay type: cell-based, human; conditions: βRE-tk luciferase reporter, RXR ligand SR11237 1 μM, effect of the mutation vs wild-type Nurr1
# Description: The wild-type and mutated Nurr1 derivatives were transfected in JEG3 cells. The ability to transactivate was assessed using a luciferase reporter gene driven by three copies of the hRARβ2 promoter RARE (βRE) upstream of a thymidine kinase promoter.
# The influence of the I-box mutations on Nurr1 transcriptional activity and on the ability to interact with RXR was examined as described by Perlmann and Jansson 1995, Zetterström et al. 1996, and Castro et al. 1999. Nurr1-RXR heterodimer-mediated transactivation was studied in human chorion carcinoma JEG3 cells. The cells were maintained in minimum essential medium supplemented with 10% fetal calf serum. Transfections were performed in quadruplicates in 24-well plates using the calcium phosphate precipitation method. The cells were plated 24 h prior to the transfection. Each well was transfected with 100 ng of the expression vector for the Nurr1 variants, 100 ng of a reporter plasmid, and 200 ng of βgalactoside plasmid that was used as an internal control for transfection efficiency. The luciferase reporter used was driven by three copies of the retinoid acid response element (RARE) of the human retinoid acid receptorβ2 (hRARβ2) gene promoter (βRE) upstream of the thymidine kinase promoter. 6-8 hours after transfection, the cells received fresh medium supplemented with 10% charcoal-stripped fetal calf,serum and RXR ligand (SR11237;1 μM). The cells were harvested 24 hours late and lysed. The cells extracts were assayed for luciferase and βgalactosidase activity. The ability of the Nurr1 mutants to interact with RXR was examined using the mammalian two-hybrid assay. The ligand-binding domains (amino acids 353-598; LBD) of both wild-type and mutated Nurr1 variants were cloned in frame with the yeast Gal4 DNA-binding domain (amino acids 1-147) in the pCMX-Gal4 expression vector (Perlmann and Jansson 1995). JEG3 cells were cotransfected with pCMX-Gal4-Nurr1-LBD derivatives and pCMX-VP16-RXR containing the herpes simplex VP16 trans-activation domain followed by the complete coding sequence of human RXRα. A reporter gene with four copies of the Gal4-binding sites was used.
Molecule,ability to activate reporter gene expression as monomers (monomeric activity) [1],ability of Nurr1 to promote RXR-mediated transactivation [2]
"KLL(554-556)AAA: mouse Nurr1 I-box mutant, residues Lys554-Leu555-Leu556 substituted by three alanines (protein) MPCVQAQYGSSPQGASPASQSYSYHSSGEYSSDFLTPEFVKFSMDLTNTEITATTSLPSFSTFMDNYSTGYDVKPPCLYQMPLSGQQSSIKVEDIQMHNYQQHSHLPPQSEEMMPHSGSVYYKPSSPPTPSTPSFQVQHSPMWDDPGSLHNFHQNYVATTHMIEQRKTPVSRLSLFSFKQSPPGTPVSSCQMRFDGPLHVPMNPEPAGSHHVVDGQTFAVPNPIRKPASMGFPGLQIGHASQLLDTQVPSPPSRGSPSNEGLCAVCGDNAACQHYGVRTCEGCKGFFKRTVQKNAKYVCLANKNCPVDKRRRNRCQYCRFQKCLAVGMVKEVVRTDSLKGRRGRLPSKPKSPQDPSPPSPPVSLISALVRAHVDSNPAMTSLDYSRFQANPDYQMSGDDTQHIQQFYDLLTGSMEIIRGWAEKIPGFADLPKADQDLLFESAFLELFVLRLAYRSNPVEGKLIFCNGVVLHRLQCVRGFGEWIDSIVEFSSNLQNMNIDISAFSCIAALAMVTERHGLKEPKRVEELQNKIVNCLKDHVTFNNGGLNRPNYLSAAAGKLPELRTLCTQGLQRIFYLKLEDLVPPPAIIDKLFLDTLPF",intact,abolished
"E561A: mouse Nurr1 I-box mutant, Glu561 substituted by alanine (protein) MPCVQAQYGSSPQGASPASQSYSYHSSGEYSSDFLTPEFVKFSMDLTNTEITATTSLPSFSTFMDNYSTGYDVKPPCLYQMPLSGQQSSIKVEDIQMHNYQQHSHLPPQSEEMMPHSGSVYYKPSSPPTPSTPSFQVQHSPMWDDPGSLHNFHQNYVATTHMIEQRKTPVSRLSLFSFKQSPPGTPVSSCQMRFDGPLHVPMNPEPAGSHHVVDGQTFAVPNPIRKPASMGFPGLQIGHASQLLDTQVPSPPSRGSPSNEGLCAVCGDNAACQHYGVRTCEGCKGFFKRTVQKNAKYVCLANKNCPVDKRRRNRCQYCRFQKCLAVGMVKEVVRTDSLKGRRGRLPSKPKSPQDPSPPSPPVSLISALVRAHVDSNPAMTSLDYSRFQANPDYQMSGDDTQHIQQFYDLLTGSMEIIRGWAEKIPGFADLPKADQDLLFESAFLELFVLRLAYRSNPVEGKLIFCNGVVLHRLQCVRGFGEWIDSIVEFSSNLQNMNIDISAFSCIAALAMVTERHGLKEPKRVEELQNKIVNCLKDHVTFNNGGLNRPNYLSKLLGKLPALRTLCTQGLQRIFYLKLEDLVPPPAIIDKLFLDTLPF",,no effect
"K558A: mouse Nurr1 I-box mutant, Lys558 substituted by alanine (protein) MPCVQAQYGSSPQGASPASQSYSYHSSGEYSSDFLTPEFVKFSMDLTNTEITATTSLPSFSTFMDNYSTGYDVKPPCLYQMPLSGQQSSIKVEDIQMHNYQQHSHLPPQSEEMMPHSGSVYYKPSSPPTPSTPSFQVQHSPMWDDPGSLHNFHQNYVATTHMIEQRKTPVSRLSLFSFKQSPPGTPVSSCQMRFDGPLHVPMNPEPAGSHHVVDGQTFAVPNPIRKPASMGFPGLQIGHASQLLDTQVPSPPSRGSPSNEGLCAVCGDNAACQHYGVRTCEGCKGFFKRTVQKNAKYVCLANKNCPVDKRRRNRCQYCRFQKCLAVGMVKEVVRTDSLKGRRGRLPSKPKSPQDPSPPSPPVSLISALVRAHVDSNPAMTSLDYSRFQANPDYQMSGDDTQHIQQFYDLLTGSMEIIRGWAEKIPGFADLPKADQDLLFESAFLELFVLRLAYRSNPVEGKLIFCNGVVLHRLQCVRGFGEWIDSIVEFSSNLQNMNIDISAFSCIAALAMVTERHGLKEPKRVEELQNKIVNCLKDHVTFNNGGLNRPNYLSKLLGALPELRTLCTQGLQRIFYLKLEDLVPPPAIIDKLFLDTLPF",,only a modest effect
"GKL(557-559)AAA: mouse Nurr1 I-box mutant, residues 557-559 (GKL) substituted by three alanines (protein) MPCVQAQYGSSPQGASPASQSYSYHSSGEYSSDFLTPEFVKFSMDLTNTEITATTSLPSFSTFMDNYSTGYDVKPPCLYQMPLSGQQSSIKVEDIQMHNYQQHSHLPPQSEEMMPHSGSVYYKPSSPPTPSTPSFQVQHSPMWDDPGSLHNFHQNYVATTHMIEQRKTPVSRLSLFSFKQSPPGTPVSSCQMRFDGPLHVPMNPEPAGSHHVVDGQTFAVPNPIRKPASMGFPGLQIGHASQLLDTQVPSPPSRGSPSNEGLCAVCGDNAACQHYGVRTCEGCKGFFKRTVQKNAKYVCLANKNCPVDKRRRNRCQYCRFQKCLAVGMVKEVVRTDSLKGRRGRLPSKPKSPQDPSPPSPPVSLISALVRAHVDSNPAMTSLDYSRFQANPDYQMSGDDTQHIQQFYDLLTGSMEIIRGWAEKIPGFADLPKADQDLLFESAFLELFVLRLAYRSNPVEGKLIFCNGVVLHRLQCVRGFGEWIDSIVEFSSNLQNMNIDISAFSCIAALAMVTERHGLKEPKRVEELQNKIVNCLKDHVTFNNGGLNRPNYLSKLLAAAPELRTLCTQGLQRIFYLKLEDLVPPPAIIDKLFLDTLPF",intact,abolished
"L562A: mouse Nurr1 I-box mutant, Leu562 substituted by alanine (protein) MPCVQAQYGSSPQGASPASQSYSYHSSGEYSSDFLTPEFVKFSMDLTNTEITATTSLPSFSTFMDNYSTGYDVKPPCLYQMPLSGQQSSIKVEDIQMHNYQQHSHLPPQSEEMMPHSGSVYYKPSSPPTPSTPSFQVQHSPMWDDPGSLHNFHQNYVATTHMIEQRKTPVSRLSLFSFKQSPPGTPVSSCQMRFDGPLHVPMNPEPAGSHHVVDGQTFAVPNPIRKPASMGFPGLQIGHASQLLDTQVPSPPSRGSPSNEGLCAVCGDNAACQHYGVRTCEGCKGFFKRTVQKNAKYVCLANKNCPVDKRRRNRCQYCRFQKCLAVGMVKEVVRTDSLKGRRGRLPSKPKSPQDPSPPSPPVSLISALVRAHVDSNPAMTSLDYSRFQANPDYQMSGDDTQHIQQFYDLLTGSMEIIRGWAEKIPGFADLPKADQDLLFESAFLELFVLRLAYRSNPVEGKLIFCNGVVLHRLQCVRGFGEWIDSIVEFSSNLQNMNIDISAFSCIAALAMVTERHGLKEPKRVEELQNKIVNCLKDHVTFNNGGLNRPNYLSKLLGKLPEARTLCTQGLQRIFYLKLEDLVPPPAIIDKLFLDTLPF",,reduced
"PEL(560-562.)AAA: mouse Nurr1 I-box mutant, residues 560-562 (PEL) substituted by three alanines (protein) MPCVQAQYGSSPQGASPASQSYSYHSSGEYSSDFLTPEFVKFSMDLTNTEITATTSLPSFSTFMDNYSTGYDVKPPCLYQMPLSGQQSSIKVEDIQMHNYQQHSHLPPQSEEMMPHSGSVYYKPSSPPTPSTPSFQVQHSPMWDDPGSLHNFHQNYVATTHMIEQRKTPVSRLSLFSFKQSPPGTPVSSCQMRFDGPLHVPMNPEPAGSHHVVDGQTFAVPNPIRKPASMGFPGLQIGHASQLLDTQVPSPPSRGSPSNEGLCAVCGDNAACQHYGVRTCEGCKGFFKRTVQKNAKYVCLANKNCPVDKRRRNRCQYCRFQKCLAVGMVKEVVRTDSLKGRRGRLPSKPKSPQDPSPPSPPVSLISALVRAHVDSNPAMTSLDYSRFQANPDYQMSGDDTQHIQQFYDLLTGSMEIIRGWAEKIPGFADLPKADQDLLFESAFLELFVLRLAYRSNPVEGKLIFCNGVVLHRLQCVRGFGEWIDSIVEFSSNLQNMNIDISAFSCIAALAMVTERHGLKEPKRVEELQNKIVNCLKDHVTFNNGGLNRPNYLSKLLGKLAAARTLCTQGLQRIFYLKLEDLVPPPAIIDKLFLDTLPF",intact,abolished
